Measured values as given in paper PMC10902354, “Deficiency in PHD2-mediated hydroxylation of HIF2α underlies Pacak-Zhuang syndrome” (Communications Biology, 2024).

B1: HIF2α-CODD F540L peptide (peptide, UniProt Q99814 523-542, looked up)
peptide: Ac-ELDLETLAPYIPMDGEDLQL-NH2
notes: HIF2α (EPAS1) CODD peptide, human, as m3 with the disease mutation F540L (Class 2); also called HIF2α F540L; source: synthetic peptide (Genscript, ≥95% purity)
B2: HIF2α-CODD G537R peptide (peptide, UniProt Q99814 523-542, looked up)
peptide: Ac-ELDLETLAPYIPMDREDFQL-NH2
notes: HIF2α (EPAS1) CODD peptide, human, as m3 with the disease mutation G537R (Class 2); also called HIF2α G537R; source: synthetic peptide (Genscript, ≥95% purity)
B3: HIF2α-CODD G537W peptide (peptide, UniProt Q99814 523-542, looked up)
peptide: Ac-ELDLETLAPYIPMDWEDFQL-NH2
notes: HIF2α (EPAS1) CODD peptide, human, as m3 with the disease mutation G537W (Class 2); also called HIF2α G537W; source: synthetic peptide (Genscript, ≥95% purity)
B4: HIF2α-CODD I533V peptide (peptide, UniProt Q99814 523-542, looked up)
peptide: Ac-ELDLETLAPYVPMDGEDFQL-NH2
notes: HIF2α (EPAS1) CODD peptide, human, as m3 with the disease mutation I533V (Class 2); also called HIF2α I533V; source: synthetic peptide (Genscript, ≥95% purity)
B5: HIF2α-CODD M535I peptide (peptide, UniProt Q99814 523-542, looked up)
peptide: Ac-ELDLETLAPYIPIDGEDFQL-NH2
notes: HIF2α (EPAS1) CODD peptide, human, as m3 with the disease mutation M535I (Class 2); also called HIF2α M535I; source: synthetic peptide (Genscript, ≥95% purity)
B6: HIF2α-CODD M535T peptide (peptide, UniProt Q99814 523-542, looked up)
peptide: Ac-ELDLETLAPYIPTDGEDFQL-NH2
notes: HIF2α (EPAS1) CODD peptide, human, as m3 with the disease mutation M535T (Class 2); also called HIF2α M535T; source: synthetic peptide (Genscript, ≥95% purity)
B7: HIF2α-CODD P534L peptide (peptide, UniProt Q99814 523-542, looked up)
peptide: Ac-ELDLETLAPYILMDGEDFQL-NH2
notes: HIF2α (EPAS1) CODD peptide, human, as m3 with the disease mutation P534L (Class 2); also called HIF2α P534L; source: synthetic peptide (Genscript, ≥95% purity)
B8: HIF2α-CODD P534R peptide (peptide, UniProt Q99814 523-542, looked up)
peptide: Ac-ELDLETLAPYIRMDGEDFQL-NH2
notes: HIF2α (EPAS1) CODD peptide, human, as m3 with the disease mutation P534R (Class 2); also called HIF2α P534R; source: synthetic peptide (Genscript, ≥95% purity)
B9: HIF2α-CODD T528M peptide (peptide, UniProt Q99814 523-542, looked up)
peptide: Ac-ELDLEMLAPYIPMDGEDFQL-NH2
notes: HIF2α (EPAS1) CODD peptide, human, as m3 with T528M; also called HIF2α T528M; source: synthetic peptide (Genscript, ≥95% purity)
B10: HIF2α-CODD Y532C peptide (peptide, UniProt Q99814 523-542, looked up)
peptide: Ac-ELDLETLAPCIPMDGEDFQL-NH2
notes: HIF2α (EPAS1) CODD peptide, human, as m3 with the disease mutation Y532C; also called HIF2α Y532C; source: synthetic peptide (Genscript, ≥95% purity)
B11: HIF2α-CODD Y532H peptide (peptide, UniProt Q99814 523-542, looked up)
peptide: Ac-ELDLETLAPHIPMDGEDFQL-NH2
notes: HIF2α (EPAS1) CODD peptide, human, as m3 with the disease mutation Y532H (Class 2); also called HIF2α Y532H; source: synthetic peptide (Genscript, ≥95% purity)
B12: HIF2α-CODD ΔG537 peptide (peptide, UniProt Q99814 523-542, looked up)
peptide: Ac-ELDLETLAPYIPMDEDFQL-NH2
notes: HIF2α (EPAS1) CODD peptide, human, as m3 without G537; also called HIF2α ΔG537; source: synthetic peptide (Genscript, ≥95% purity)

Biological target: T1, Alexa 647 labeled PHD2 (catalytic / prolyl-hydroxylase domain, residues 181-426) (human, UniProt Q9GZT9 181-426, Alexa Fluor 647 N-hydroxysuccinimide ester dye, 1-2 dye molecules per protein molecule)
T1 construct: PHD2, prolyl-hydroxylase domain (catalytic domain), residues 181-426, from pET-46-HIS6-PHD2; Same construct as m2, dye-labeled for MST; also called PHD2-647; source: E. coli BL21(DE3), purified (Ni-NTA, thrombin cleavage, Superdex 75), labeled with Alexa Fluor 647 NHS ester
T1 sequence (Q9GZT9 181-426): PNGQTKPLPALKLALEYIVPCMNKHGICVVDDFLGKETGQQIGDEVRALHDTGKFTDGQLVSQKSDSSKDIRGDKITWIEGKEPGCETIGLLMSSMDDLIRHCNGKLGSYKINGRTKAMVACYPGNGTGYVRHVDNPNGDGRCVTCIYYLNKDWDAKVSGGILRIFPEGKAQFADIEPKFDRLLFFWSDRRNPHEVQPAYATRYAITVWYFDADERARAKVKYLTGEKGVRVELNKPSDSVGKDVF
Assay: MST; 25 nM Alexa 647 labeled PHD2, unlabeled peptide in 16 two-fold dilutions; room temperature; MST Buffer 50 mM Tris-HCl pH 7.5, 1 mM NOG, 10 µM FeSO4, 5 mg/ml BSA mixed 1:1 with peptide in 50 mM Tris-HCl pH 8.0; 1:1 Kd model; triplicate
Details: both partners purified

Binder | Kd [µM]
B1 | 229 ± 25
B2 | 175 ± 20
B3 | 83 ± 9
B4 | 167 ± 29
B5 | 154 ± 17
B6 | 203 ± 25
B7 | 221 ± 19
B8 | 153 ± 10
B9 | 23 ± 2
B10 | 345 ± 247
B11 | 41 ± 5
B12 | 13 ± 2
